PMC13022675

Molecular target: GFP-tagged MR1A (MR1-GFP) expressed in clonal cell line D6 (D6ins and D6del mutants) (UniProt Q95460)
Sequence of UniProt Q95460 (Q95460 23-341, stated change not applied): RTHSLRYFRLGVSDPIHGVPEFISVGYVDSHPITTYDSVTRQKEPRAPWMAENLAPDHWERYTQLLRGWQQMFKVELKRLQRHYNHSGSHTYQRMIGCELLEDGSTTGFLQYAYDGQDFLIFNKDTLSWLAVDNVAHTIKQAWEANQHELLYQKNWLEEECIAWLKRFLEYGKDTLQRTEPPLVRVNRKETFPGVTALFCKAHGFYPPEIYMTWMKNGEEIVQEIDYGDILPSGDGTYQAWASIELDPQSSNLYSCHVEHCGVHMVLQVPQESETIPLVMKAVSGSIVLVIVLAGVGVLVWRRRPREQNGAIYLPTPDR

fully folded MR1 (antibody clone 26.5) remaining at the cell surface 6 h after brefeldin A, flow cytometry: 20%
Substance: β2-microglobulin (from UniProt P61769 21-119) (natural protein)
